Source: patent US7795217B2, “Methods and compositions for cell-cycle regulation” (priority 2005, dated 2010)

Columns and labels:
KAP phosphatase [1] = molecular target: T1, KAP phosphatase (Homo sapiens, UniProt Q16667); assay: KAP phosphatase activity assay, hydrolysis of pNPP; format: biochemical
Experimental: KAP phosphatase activity was examined by the detection of hydrolysis of p-nitrophenyl phosphate (pNPP) (WAKO) as described previously (Song, H., Hanlon, N., Brown, N. R., Noble, M. E., Johnson, L. N., and Barford, D. (2001) Mol. Cell. 7, 615-626). The time course of phosphatase activity for KAP was examined. 20 μl of reaction mixture containing 50 mM Tris-HCl, pH 7.5, 0.15 M NaCl, 2 mM DTT, 0.5 mM EDTA, 3 mM pNPP, 40 μM KAP, 4 μM cdk cyclin A (Upstate Biotechnology), and 20 μM HTm4 was incubated at 30° C. for the indicated times. The reaction was halted by the addition of 0.1 M NaOH. The phosphatase activity in 5 μl of each sample was measured as A410. To investigate the effect of HTm4 on KAP, KAP phosphatase activity was assessed with different HTm4 concentrations in the presence of pNPP. Reaction velocity was measured in the presence of 0.0025-20 μM HTm4.
(§1) 20 μl of reaction mixture containing 50 mM Tris-HCl, pH 7.5, 0.15 M NaCl, 2 mM DTT, 0.5 mM EDTA, 3 mM pNPP, 40 μM KAP, 4 μM cdk2.cyclin A, and 20 μM HTm4 was incubated at 30° C. for the indicated times. The reaction was halted by the addition of 0.1 M NaOH. The phosphatase activity in 5 μl of each sample was measured at 410 nm. […] KAP phosphatase activity was assessed in the presence of increasing amounts of HTm4 using pNPP as the KAP substrate. The reaction velocity was measured in the presence of 0.0025-20 μM HTm4. All reaction mixtures contained 40 μM KAP and 4 μM active cdk2.cyclin A. Reactions were repeated in triplicate. Their average values and standard deviations are shown. […] KAP phosphatase activity was assessed using the Ser/Thr Assay Kit 1 with different concentrations of active cdk2.cyclin A (from 4 to 20 μM) as the substrate in the presence or absence of 40 μM HTm4. […] KAP phosphatase activity was assessed using the Ser/Thr Assay Kit 1 with different concentrations of active cdk2.cyclin A (from 4 to 20 μM) as the substrate in the presence or absence of 40 μM HTm4.

KAP [2] = molecular target: T2, KAP (Homo sapiens, UniProt Q16667); assay: Circular dichroism spectroscopy of KAP; details: 5 μM KAP, 50 μM HTm4 C-peptide, 250 to 320 nm
T2 construct: Full-length KAP protein was coupled to a sensor chip CM-5 shell; made in house
T2 sequence (Q16667 1-212): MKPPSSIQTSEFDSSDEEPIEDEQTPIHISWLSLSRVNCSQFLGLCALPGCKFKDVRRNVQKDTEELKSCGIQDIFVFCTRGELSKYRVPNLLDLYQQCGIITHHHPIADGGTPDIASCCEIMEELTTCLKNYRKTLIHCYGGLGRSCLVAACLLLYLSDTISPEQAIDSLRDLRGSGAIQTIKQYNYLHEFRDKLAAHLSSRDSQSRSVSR
Experimental: Circular Dichroism (CD) spectroscopic measurements were performed on a Jasco J-700 (Jasco, Japan). Spectra measurements were recorded from 250 to 320 nm. The spectra change of KAP was measured by comparing two different KAP samples in the same solution (20 mM Tris-HCl, pH 7.2, 0.15 M NaCl). Sample A contained 5 μM KAP and an excess amount of HTm4 C-peptide (50 μM). The contents of sample B were identical to those in sample A, except for HTm4 C-peptide. The difference in spectra was further converted to parameter (mean residue ellipticity) and plotted on the graph in FIG. 4.
Spectra measurements were recorded from 250 to 320 nm. The spectra change of KAP was measured by comparing two different KAP samples in the same solution (20 mM Tris-HCl, pH 7.2, 0.15 M NaCl). Sample A contains 5 μM KAP and an excess amount of HTm4 C-peptide (50 μM). Sample B was formulated as Sample A, with the exception of the HTm4 C-peptide. The difference in spectra was further converted to parameter (mean residue ellipticity) and plotted.

KAP [3] = molecular target: T2, KAP; assay: Surface plasmon resonance (BioSensor Biacore) protein interaction assay; format: binding; details: for binding to KAP-coupled sensor chip (increase in mass): versus uncoupled or nonspecifically coupled chips
Experimental: The immobilization of proteins to sensor chips (CM-5 chip) was performed using a carbodiimide covalent linkage protocol (Amersham Biosciences). KAP was coupled to the sensor chip at 2,800 resonance units (RU). Nonspecific human immunoglobin was coupled to the surface of the sensor chip (anti-β 2m antibody BBM.1) at 2,900 RU. Protein interaction assays were carried out using the BioSensor Biacore 2000 (Biacore). An HTm4 C-terminal peptide composed of 22 amino acids ([…] SEQ ID NO:3) was synthesized. Either full-length HTm4 protein (20 μM), or HTm4 C-terminal peptide (1 mM) in 50 mM HEPES containing 1 mM EDTA, 1 mM DTT, 5% glycerol, and 0.1% Tween 20 was examined at a flow rate of 10 μl/min.
Surface plasmon resonance was used to detect direct binding of purified HTm4 to KAP. Full-length KAP protein was coupled to a sensor chip CM-5 shell (Amersham Biosciences).
The interactions of HTm4 with immobilized proteins were analyzed on a sensor chip (CM-5) cell. KAP was coupled to the surface of the sensor chip at 2,800 RU; nonspecific human immunoglobulin (NS) was coupled to the surface of the sensor chip (anti-β2m antibody BBM.1) at 2,900 RU; UC, uncoupled sensor chip. Binding of 20 μM full-length HTm4 protein in 50 mM HEPES containing 1 mM EDTA, 1 mM DTT, 5% glycerol, and 0.1% Tween 20 was examined at a flow rate of 10 μl/min. […] The interactions of HTm4 with immobilized proteins were analyzed on a sensor chip (CM-5) cell. KAP was coupled to the surface of the sensor chip at 2,800 RU; nonspecific human immunoglobulin was coupled on the surface of the sensor chip (anti-β 2m antibody BBM.1) at 2,900 RU. Binding of 1 mM HTm4 C-terminal peptide in 50 mM HEPES containing 1 mM EDTA, 1 mM DTT, 5% glycerol, and 0.1% Tween 20 was examined at a flow rate of 10 μl/min. Responses from uncoupled cells were subtracted.

[4] = molecular target: KAP.cdk2.cyclin A complex (Homo sapiens, UniProt Q16667); assay: Cyclin A dissociation assay; format: biochemical; details: 1 or 10 μM HTm4 without His tag, His-tagged KAP pull-down
Experimental: The status of the cdk2.cyclin A complex was examined in the presence and absence of HTm4. […] The bound fractions were resolved by SDS-PAGE and Western blotted for the presence of cyclin A (Santa Cruz Biotechnology). An alkaline phosphatase conjugated to anti-rabbit IgG (EY Laboratory) was used to visualize the amount of bound cyclin A present in the KAP cdk2 complex. […] After incubating at room temperature for 5 min, either 10 μl of 10 μM HTm4 (without His tag) or its buffer was added to the reaction mixture. After incubating at room temperature for 5 min, 5 μl of nickel magnet beads was added to each mixture. […] The gel was stained with a silver staining kit (ATTO).
After that, 5 μl of nickel magnet beads was added. Bound fractions were electrophoresed by SDS-PAGE and then detected by Western blotting with anti-cyclin A antibody as the primary antibody, and alkaline phosphatase-conjugated anti-rabbit IgG was used as the secondary antibody. The band of cyclin A is indicated with an arrow. […] After incubation at room temperature for 5 min, 10 μl of 10 μM HTm4 (without His tag) or its buffer was added to the mixture and allowed to incubate at room temperature for 5 mins. 5 μl of nickel magnet beads was added to each mixture. […] The gel was then silver stained. Bands of cyclin A, cdk2, and KAP are indicated with arrows.

KAP phosphatase [5] = molecular target: T3, KAP phosphatase (Homo sapiens, UniProt Q16667); assay: KAP dephosphorylation of peptide or protein substrates (Ser/Thr Phosphatase Assay Kit 1); format: biochemical; details: 30 min at 30° C.
T3 construct: made in house
T3 sequence (Q16667 1-212): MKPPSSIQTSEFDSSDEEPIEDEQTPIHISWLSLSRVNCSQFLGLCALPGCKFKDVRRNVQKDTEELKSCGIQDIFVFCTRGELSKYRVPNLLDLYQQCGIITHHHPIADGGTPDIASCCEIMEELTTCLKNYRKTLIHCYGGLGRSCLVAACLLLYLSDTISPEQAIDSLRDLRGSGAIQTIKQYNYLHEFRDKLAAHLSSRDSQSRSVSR
Experimental: KAP dephosphorylation of phosphorylated proteins or peptide substrates was examined using the Ser/Thr Phosphatase Assay Kit 1 (Upstate Biotechnology) according to the manufacturer's instructions. Phosphorylated Thr^160 of cdk2 and K-R-pT-I-R-R peptide were used as substrates for the assay. Concentrations of KAP and HTm4 were both 20 μM; concentrations of p-cdk2 and peptide substrates (K-R-pT-I-R-R) were 10 and 25 μM, respectively. Reactions were performed in pNPP Ser/Thr Assay Buffer, containing 50 mM Tris-HCl, pH 7.0, and 100 μM CaCl2. To examine the importance of the HTm4 C-terminal region and to confirm the KAP phosphatase activity enhancement effect of HTm4, an HTm4 C-terminal peptide composed of 22 amino acids ([…] SEQ ID NO:3) was synthesized. The phosphatase enhancement activity of the HTm4 C-terminal region was examined using the assay protocol described above.
KAP dephosphorylation of phosphorylated proteins or peptide substrates was examined using the Ser/Thr Phosphatase Assay Kit 1 according to the manufacturer's instructions. Phosphorylated Thr^160 of cdk2 (p-cdk2) and K-R-pT-I-R-R peptides (SEQ ID NO:4) were used as substrates for the assay. […]
Phosphorylated threonine 160 from cdk2.cyclin A, active, and phosphopeptide (K-R-pT-I-R-R) were used as substrates to assess KAP activity. […] The reaction was allowed to proceed for 30 min at 30° C., and absorbance was measured at 650 nm.

KAP phosphatase [6] = molecular target: T1, KAP phosphatase; assay: Kinetic measurements of KAP phosphatase with active cdk2.cyclin A as substrate (Lineweaver-Burk plot); format: biochemical; details: 40 μM HTm4, active cdk2.cyclin A 4 to 20 μM as substrate
Experimental: To investigate the effect of HTm4 on KAP, the initial reaction velocity of KAP was assessed using different concentrations of active cdk2.cyclin A as the substrate in the presence or absence of HTm4. The results were analyzed further using a Lineweaver-Burk plot.
as §1

## CNANCCNSREEISSPPNSV (Synthetic HTm4 C-terminal Peptide) [HTm4 C-peptide]
KAP phosphatase [1]; C-terminal peptide at 0.1 mM, pNPP substrate
  enhancement effect on KAP phosphatase activity compared with HTm4 wild-type protein: comparable enhancement effect
KAP [2]
  CD difference spectrum of KAP with versus without C-peptide: spectral change was found at 270-280 nm
KAP [3]; 1 mM HTm4 C-terminal peptide, flow rate 10 μl/min
  binding to KAP-coupled sensor chip (increase in mass): immediate increase in mass was observed

B1: HTm4: Recombinant human HTm4 (MS4A3) full-length protein purified from E. coli, His tag cleaved (protein, listed as Homo sapiens)
chain: MASHEVDNAELGSASAHGTPGSEAGPEELNTSVYQPIDGSPDYQKAKLQVLGAIQILNAAMILALGVFLGSLQYPYHFQKHFFFFTFYTGYPIWGAVFFCSSGTLSVVAGIKPTRTWIQNSFGMNIASATIALVGTAFLSLNIAVNIQSLRSCHSSSESPDLCNYMGSISNGMVSLLLILTLLELCVTISTIAMWCNANCCNSREEISSPPNSV
[4]
  dissociation of cyclin A from the KAP.cdk2.cyclin A complex: dissociated from the complex in a dose-dependent manner
KAP phosphatase [5]; 20 μM KAP and HTm4, 10 μM p-cdk2 in the cdk2.cyclin A complex
  increase of dephosphorylating activity of KAP toward phosphorylated cdk2: more than 6 fold
KAP phosphatase [5]; 20 μM KAP and HTm4, 25 μM peptide substrate
  KAP dephosphorylation of synthesized phosphopeptide K-R-pT-I-R-R: potentiates dephosphorylation
KAP phosphatase [1]; 20 μM HTm4, wild-type KAP, 4 μM active cdk2.cyclin A
  KAP phosphatase activity toward pNPP substrate: significantly enhanced
KAP phosphatase [1]; 0.0025-20 μM HTm4, pNPP substrate, 40 μM KAP, 4 μM active cdk2.cyclin A
  effect of increasing HTm4 on KAP phosphatase activity (reaction velocity): linearly increased
KAP phosphatase [6]
  Vmax of KAP phosphatase activity in the presence of HTm4: 17.5 nM/min
KAP phosphatase [6]; read-out: Km of KAP phosphatase activity in the presence of HTm4
  Km: 8.33 µM
KAP [3]; 20 μM full-length HTm4, flow rate 10 μl/min
  binding to KAP-coupled sensor chip (increase in mass): immediate increase in mass was observed
KAP [3]; premixed with KAP, data not shown
  KAP/HTm4 selective binding after premixing HTm4 with KAP: abolished
